Legend:
[1] = target: T1, T. cruzi L-threonine dehydrogenase (TcTDH) (Trypanosoma cruzi, UniProt Q4CU39); assay: recombinant enzyme, diaphorase/resazurin coupled fluorescence assay; Ki by direct NADH fluorescence (Ki-Thr […], Ki-NAD+[…]); format: biochemical
T1 construct: gene Tc00.1047053507923.10; recombinant TcTDH, codon-optimized gene in pET28a, His-tag purified
T1 sequence (Q4CU39 1-332): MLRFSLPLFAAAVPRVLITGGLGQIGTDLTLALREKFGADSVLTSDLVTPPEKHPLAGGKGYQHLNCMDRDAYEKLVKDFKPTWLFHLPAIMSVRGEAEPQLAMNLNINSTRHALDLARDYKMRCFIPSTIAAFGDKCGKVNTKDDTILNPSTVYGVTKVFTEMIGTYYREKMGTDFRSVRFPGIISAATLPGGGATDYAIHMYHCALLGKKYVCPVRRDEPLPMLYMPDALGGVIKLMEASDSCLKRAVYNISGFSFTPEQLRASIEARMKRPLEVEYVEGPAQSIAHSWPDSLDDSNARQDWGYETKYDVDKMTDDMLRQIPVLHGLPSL

[2] = target: Trypanosoma cruzi L-threonine dehydrogenase (TcTDH), recombinant wild type (Trypanosoma cruzi (CL Brener Esmeraldo-like strain)); assay: SEC; data not shown; quaternary structure in solution
[3] = substrate: C[C@@H](O)[C@H](N)C(=O)O; assay: purified protein; format: biochemical, Trypanosoma cruzi; settings: NAD+; K+ ([…] KCl)

**Q.** Which IC50 [1] does the source give for `CCOc1ccc(NC(=O)/C=C/c2ccc(CC)o2)cc1` [TCMDC-143160] here?
**A.** 3.5 µM

**Q.** “Trypanosoma cruzi L-threonine dehydrogenase (TcTDH), recombinant wild type (enzyme)” was tested. Which stoichiometry N [2] did it give?
**A.** 2

B1: T. cruzi L-threonine dehydrogenase (TcTDH) (Trypanosoma cruzi strain CL Brener) (protein)
chain: MLRFSLPLFAAAVPRVLITGGLGQIGTDLTLALREKFGADSVLTSDLVTPPEKHPLAGGKGYQHLNCMDRDAYEKLVKDFKPTWLFHLPAIMSVRGEAEPQLAMNLNINSTRHALDLARDYKMRCFIPSTIAAFGDKCGKVNTKDDTILNPSTVYGVTKVFTEMIGTYYREKMGTDFRSVRFPGIISAATLPGGGATDYAIHMYHCALLGKKYVCPVRRDEPLPMLYMPDALGGVIKLMEASDSCLKRAVYNISGFSFTPEQLRASIEARMKRPLEVEYVEGPAQSIAHSWPDSLDDSNARQDWGYETKYDVDKMTDDMLRQIPVLHGLPSL
notes: recombinant TcTDH
**Q.** Which Km [3] does the source give for B1 here?
**A.** 6.6 mM

From publication PMC11910319, “Inhibition of L-threonine dehydrogenase from Trypanosoma cruzi reduces glycine and acetate production and interferes with parasite growth and viability” (The Journal of Biological Chemistry, 2024)
